Like-named read-outs stand apart in the source and are kept apart here. Blank lines part the entries; values can stand above or below the molecule they belong to.
Experiments:
[1] = target: APLP1 F1 (APLP1 with a C-terminal FKBP tag and HA tag); test: native gel or EMSA; Blue Native PAGE (4–15% Tris–HCl gel, overnight, 4 °C) of membranes of transiently transfected N2a cells solubilised with n-dodecyl-β-D-maltoside; no dimerizer (untreated or ethanol vehicle); Western blot; dimer as percent of total signal
[2] = native gel or EMSA; as a1, but the cells were treated with 100 nM of the rapamycin analogue AP20187 (dimerizer) overnight, added 4 h post-transfection
[3] = native gel or EMSA; Blue Native PAGE (4–15% Tris–HCl gel, overnight, 4 °C) of membranes of transiently transfected N2a cells solubilised with n-dodecyl-β-D-maltoside; no dimerizer (untreated or ethanol vehicle); Western blot; dimer as percent of total signal
[4] = target: APLP2 F1 (APLP2-763 with a C-terminal FKBP tag and HA tag); test: as above
[5] = target: APP F1 (APP695 with a C-terminal FKBP tag and HA tag); test: as above
[6] = target: endogenous human APP (human (endogenous in middle frontal gyrus)); test: native gel or EMSA; Blue Native PAGE, semi-denaturing conditions, of human middle frontal gyrus (controls n = 5, AD n = 6); Western blot with Y188
[7] = target: endogenous mouse APLP1 (mouse (endogenous in C57BL/6 cortex and mouse cells)); test: native gel or EMSA; Blue Native PAGE of membranes of homogenised mouse cortices (E14 to 12 months; WT, non-transgenic and J20 mice; KO cortices as antibody controls), n-dodecyl-β-D-maltoside; Western blot with Y188, 57 or D2-II
[8] = target: endogenous mouse APP (mouse (endogenous in C57BL/6 cortex and mouse cells)); test: as above
[9] = target: endogenous mouse APP (mouse (endogenous in C57BL/6 cortex and mouse cells)); test: as above; remark: listed apart in the source
[10] = target: hAPP with the FAD mutations Swedish (K670N/M671L) and Indiana (V717F), transgenic in J20 mice (human) (UniProt P05067); test: as above
[11] = target: T1, endogenous mouse APLP2 (mouse (endogenous in C57BL/6 cortex and mouse cells)), Q06335; test: as above; conditions: remark: other sources report otherwise
T1 chain: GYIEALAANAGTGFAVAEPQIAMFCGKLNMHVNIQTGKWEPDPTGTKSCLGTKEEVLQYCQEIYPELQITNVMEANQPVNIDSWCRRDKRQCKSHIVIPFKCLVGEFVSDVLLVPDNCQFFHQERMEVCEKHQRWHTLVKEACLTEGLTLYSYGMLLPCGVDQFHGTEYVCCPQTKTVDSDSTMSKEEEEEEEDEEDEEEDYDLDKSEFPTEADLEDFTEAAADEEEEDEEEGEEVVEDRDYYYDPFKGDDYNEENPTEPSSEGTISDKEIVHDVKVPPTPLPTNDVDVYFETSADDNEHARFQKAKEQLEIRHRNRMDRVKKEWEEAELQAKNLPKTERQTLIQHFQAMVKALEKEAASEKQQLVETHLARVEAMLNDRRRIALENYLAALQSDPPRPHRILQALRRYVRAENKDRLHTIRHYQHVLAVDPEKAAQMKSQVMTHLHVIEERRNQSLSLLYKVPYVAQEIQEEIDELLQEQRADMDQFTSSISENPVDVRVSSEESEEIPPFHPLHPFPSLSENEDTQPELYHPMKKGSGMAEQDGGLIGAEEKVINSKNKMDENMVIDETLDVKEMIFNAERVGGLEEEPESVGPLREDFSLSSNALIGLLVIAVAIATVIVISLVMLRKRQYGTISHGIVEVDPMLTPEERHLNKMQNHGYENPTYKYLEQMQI

- percent dimer [1]: 31.8%
Molecule: APLP1 F1 (APLP1 with a C-terminal FKBP tag and HA tag)

- percent dimer [4]: 16.2%
Molecule: APLP2 F1 (APLP2-763 with a C-terminal FKBP tag and HA tag)
- percent in the HMW complex with AP20187 [2]: > 60% of APLP2 in the HMW complex
- percent in the HMW complex [3]: < 20%, in the high molecular weight (HMW) complex

- percent dimer [5]: 22.2%
Molecule: APP F1 (APP695 with a C-terminal FKBP tag and HA tag)

- percent dimer (non-demented controls) [6]: 21.8%
Molecule: endogenous human APP (natural protein)

- percent dimer [7]: 45.6%
Molecule: endogenous mouse APLP1 (natural protein)

- percent dimer [8]: 48.9%
- percent dimer (1 to 12 months old mice) [8]: 49%
- percent dimer (4 months) [8]: 61.3%
- percent dimer (12 months) [8]: 54.8%
- percent dimer [9]: 45%
Molecule: endogenous mouse APP (natural protein)

- percent dimer (4 months) [10]: 58.1%
- percent dimer (12 months) [10]: 58%
Molecule: hAPP with the FAD mutations Swedish (K670N/M671L) and Indiana (V717F), transgenic in J20 mice (from UniProt P05067 18-770) (natural protein)

- percent dimer [11]: 26.1%
B1: endogenous mouse APLP2, Q06335 32-707 (natural protein)
chain: T1 chain
